According to PMC10144430 (Viruses, 2023):

Key:
[1] = biological target: T1, cys2_(306t), soluble disulfide-bonded gD mutant (K190C-A277C) truncated at position 306 ( (herpes simplex virus)); …, UniProt Q69467 26-331, K190C | A277C, engineered disulfide bond Cys190-Cys277 (reduced where TCEP was added)); test: SPR; Biacore 3000, room temperature, HBS-EP; gD captured via Mab 1D3 on a CM5 chip; soluble nectin-1 injected 300 s at 5 uL/min (also pre-mixed with 1 mM TCEP, binding unaffected); conditions: both partners purified
T1 construct: also called gD cys2; cy2; source: 293T cells, transfected, purified from supernatant (nickel column); not shown: His6, C-terminal, kept

[2] = biological target: T2, gDL268N_(306t), soluble gD L268N truncated at residue 306 ( (herpes simplex virus; …, UniProt Q69467 26-331, L268N); test: as above; conditions: both partners purified
T2 construct: source: 293T cells, transfected, purified from supernatant (Ni-NTA resin)

B1: soluble nectin-1 (receptor)
chain: QVVQVNDSMYGFIGTDVVLHCSFANPLPSVKITQVTWQKSTNGSKQNVAIYNPSMGVSVLAPYRERVEFLRPSFTDGTIRLSRLELEDEGVYICEFATFPTGNRESQLNLTVMAKPTNWIEGTQAVLRAKKGQDDKVLVATCTSANGKPPSVVSWETRLKGEAEYQEIRNPNGTVTVISRYRLVPSREAHQQSLACIVNYHMDRFKESLTLNVQYEPEVTIEGFDGNWYLQRMDVKLTCKADANPPATEYHWTTLNGSLPKGVEAQNRTLFFKGPINYSLAGTYICEATNPIGTRSGQVEVNITEFPYTPSPPEHGRRAGPVPTA
notes: source: baculovirus-infected insect cells (Sf9), purified
nectin-1 binding, % of wt [1]: ~40 % of wt
nectin-1 binding, % of wt [2]: ~50 % of wt
